Reference: paper PMC3627919, “Novel Split-Luciferase-Based Genetically Encoded Biosensors for Noninvasive Visualization of Rho GTPases” (PLoS ONE, 2013)

Biological target: T1, Nfluc416-WASP (human, UniProt P42768 220-288)
T1 sequence (looked up): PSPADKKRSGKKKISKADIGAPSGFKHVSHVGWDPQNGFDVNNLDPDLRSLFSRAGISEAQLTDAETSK
Assay: split reporter (BiFC, NanoBiT); bimolecular luminescence complementation (split firefly luciferase) in living HEK 293 cells, 24 h after transient cotransfection of the pair (50 ng/well) with pRL-tk; D-luciferin 150 ug/ml; IVIS CCD camera; ratio FL at 600 nm to RL at 500 nm; wild-type pairs also with co-expressed GEF or GAP catalytic domains
Settings: partners not purified

- luminescence signal, fold of the active mutant over the wild type: 2.77 fold
- reconstituted luminescence (FL/RL), fold over CDC42 F37A: 14.3 fold
- reconstituted luminescence (FL/RL), fold over CDC42 T17N: 5.6 fold
- reconstituted luminescence (FL/RL), fold over CDC42 WT: 2.7 fold
B1: Cfluc398-CDC42(G12V) (natural protein)
chain: not shown
